Measured values from patent US20250320281A1.

Experiments:
[1] = target: HIV-1 94UG103 Env (pseudovirus) (HIV-1); assay: cell-based or functional assay
[2] = target: HIV-1 Env of pseudovirus isolate MGRM-G-016 (HIV-1); assay: cell-based or functional assay
[3] = target: HIV-1 Env of pseudovirus isolate MGRM-G-014 (HIV-1); assay: cell-based or functional assay
[4] = target: HIV-1 CMU02 Env (pseudovirus) (HIV-1); assay: cell-based or functional assay
[5] = target: HIV-1 MGRM-A-010 Env (pseudovirus) (HIV-1); assay: cell-based or functional assay
[6] = target: HIV-1 Env of pseudovirus isolate MGRM-G-013 (HIV-1); assay: cell-based or functional assay
[7] = target: HIV-1 JRCSF Env (pseudovirus) (HIV-1) (UniProt P20871); assay: cell-based or functional assay
[8] = target: HIV-1 MGRM-C-028 Env (pseudovirus) (HIV-1); assay: cell-based or functional assay
[9] = target: HIV-1 NL43 Env (pseudovirus) (HIV-1); assay: cell-based or functional assay
[10] = target: envelope of aMLV pseudovirus (negative control); assay: cell-based or functional assay
[11] = target: HIV-1 92UG024 Env (pseudovirus) (HIV-1); assay: cell-based or functional assay
[12] = target: HIV-1 Env of pseudovirus isolate MGRM-G-015 (HIV-1); assay: cell-based or functional assay
[13] = target: HIV-1 Env of pseudovirus isolate MGRM-G-006 (HIV-1); assay: cell-based or functional assay
[14] = target: HIV-1 Env of pseudovirus isolate MGRM-G-017 (HIV-1); assay: cell-based or functional assay
[15] = target: HIV-1 Env of pseudovirus isolate MGRM-G-004 (HIV-1); assay: cell-based or functional assay
[16] = target: HIV-1 Env of pseudovirus isolate MGRM-G-011 (HIV-1); assay: cell-based or functional assay
[17] = target: HIV-1 Env of pseudovirus isolate MGRM-G-009 (HIV-1); assay: cell-based or functional assay
[18] = target: HIV-1 92TH021 Env (pseudovirus) (HIV-1); assay: cell-based or functional assay
[19] = target: HIV-1 MGRM-C-027 Env (pseudovirus) (HIV-1); assay: cell-based or functional assay
[20] = target: HIV-1 MGRM-C-026 Env (pseudovirus) (HIV-1); assay: cell-based or functional assay
[21] = target: HIV-1 APV6 Env (pseudovirus) (HIV-1); assay: cell-based or functional assay
[22] = target: HIV-1 Env of pseudovirus isolate MGRM-G-019 (HIV-1); assay: cell-based or functional assay
[23] = target: HIV-1 92UG005 Env (pseudovirus) (HIV-1); assay: cell-based or functional assay
[24] = target: HIV-1 Env of pseudovirus isolate MGRM-G-001 (HIV-1); assay: cell-based or functional assay
[25] = target: HIV-1 92RW020 Env (pseudovirus) (HIV-1); assay: cell-based or functional assay
[26] = target: HIV-1 Env of pseudovirus isolate MGRM-G-027 (HIV-1); assay: cell-based or functional assay
[27] = target: HIV-1 93IN905 Env (pseudovirus) (HIV-1); assay: cell-based or functional assay
[28] = target: HIV-1 MGRM-D-018 Env (pseudovirus) (HIV-1); assay: cell-based or functional assay
WT JR-FL gp120 (HIV-1) = assay: ELISA, antigen-coated wells

Work on 5147_N06 (PGT-130) (antibody) yielded a Neutralization by PGT-130, IC50 [1] of 0.635 mg/L, a Neutralization by PGT-130, IC80 [1] of over 10 mg/L and a Neutralization by PGT-130, IC90 [1] of over 10 mg/L. For the same substance, the Neutralization by PGT-130, IC95 [1] was over 10 mg/L, the neutralization IC50 (pseudovirus) [1] was 0.635 mg/L and the IC50 (µg/mL), pseudovirus neutralization [2] was over 50 µg/mL. The IC50 (µg/mL), pseudovirus neutralization [3] was 2.23 µg/mL, the Neutralization by PGT-130, IC50 [4] was over 10 mg/L and the Neutralization by PGT-130, IC80 [4] was over 10 mg/L. The Neutralization by PGT-130, IC90 [4] was over 10 mg/L, the Neutralization by PGT-130, IC95 [4] was over 10 mg/L and the neutralization IC50 (pseudovirus) [4] was over 10 mg/L. For the same substance, the Neutralization by PGT-130, IC50 [5] was 0.0054 mg/L, the Neutralization by PGT-130, IC80 [5] was 0.0251 mg/L and the Neutralization by PGT-130, IC90 [5] was 0.0643 mg/L. It also gave a Neutralization by PGT-130, IC95 [5] of 0.164 mg/L, a neutralization IC50 (pseudovirus) [5] of 0.0054 mg/L and an IC50 (µg/mL), pseudovirus neutralization [6] of over 50 µg/mL. The Neutralization by PGT-130, IC50 [7] was 0.0089 mg/L, the Neutralization by PGT-130, IC80 [7] was 0.0317 mg/L and the Neutralization by PGT-130, IC90 [7] was 0.0669 mg/L. The Neutralization by PGT-130, IC95 [7] was 0.134 mg/L, the neutralization IC50 (pseudovirus) [7] was 0.0089 mg/L and the Neutralization by PGT-130, IC50 [8] was over 10 mg/L. For the same substance, the Neutralization by PGT-130, IC80 [8] was over 10 mg/L, the Neutralization by PGT-130, IC90 [8] was over 10 mg/L and the Neutralization by PGT-130, IC95 [8] was over 10 mg/L. The neutralization IC50 (pseudovirus) [8] was over 10 mg/L, the Neutralization by PGT-130, IC50 [9] was over 10 mg/L and the Neutralization by PGT-130, IC80 [9] was over 10 mg/L. For the same substance, the Neutralization by PGT-130, IC90 [9] was over 10 mg/L, the Neutralization by PGT-130, IC95 [9] was over 10 mg/L and the neutralization IC50 (pseudovirus) [9] was over 10 mg/L. The IC50 (µg/mL), pseudovirus neutralization [10] was over 50 µg/mL, the Neutralization by PGT-130, IC50 [11] was over 10 mg/L and the Neutralization by PGT-130, IC80 [11] was over 10 mg/L. It also gave a Neutralization by PGT-130, IC90 [11] of over 10 mg/L, a Neutralization by PGT-130, IC95 [11] of over 10 mg/L and a neutralization IC50 (pseudovirus) [11] of over 10 mg/L. It also gave an IC50 (µg/mL), pseudovirus neutralization [12] of over 50 µg/mL, an IC50 (µg/mL), pseudovirus neutralization [13] of over 50 µg/mL and an IC50 (µg/mL), pseudovirus neutralization [14] of over 50 µg/mL. For the same substance, the IC50 (µg/mL), pseudovirus neutralization [15] was over 50 µg/mL, the IC50 (µg/mL), pseudovirus neutralization [16] was over 50 µg/mL and the IC50 (µg/mL), pseudovirus neutralization [17] was over 50 µg/mL. It also gave a Neutralization by PGT-130, IC50 [18] of 0.0082 mg/L, a Neutralization by PGT-130, IC80 [18] of 0.0261 mg/L and a Neutralization by PGT-130, IC90 [18] of 0.0513 mg/L. For the same substance, the Neutralization by PGT-130, IC95 [18] was 0.0963 mg/L, the neutralization IC50 (pseudovirus) [18] was 0.0082 mg/L and the Neutralization by PGT-130, IC50 [19] was 0.0052 mg/L. It also gave a Neutralization by PGT-130, IC80 [19] of 0.0318 mg/L, a Neutralization by PGT-130, IC90 [19] of 0.106 mg/L and a Neutralization by PGT-130, IC95 [19] of 0.464 mg/L. It also gave a neutralization IC50 (pseudovirus) [19] of 0.0052 mg/L, a Neutralization by PGT-130, IC50 [20] of 0.0173 mg/L and a Neutralization by PGT-130, IC80 [20] of 0.263 mg/L. The Neutralization by PGT-130, IC90 [20] was 1.32 mg/L, the Neutralization by PGT-130, IC95 [20] was 6.13 mg/L and the neutralization IC50 (pseudovirus) [20] was 0.0173 mg/L. For the same substance, the Neutralization by PGT-130, IC50 [21] was over 10 mg/L, the Neutralization by PGT-130, IC80 [21] was over 10 mg/L and the Neutralization by PGT-130, IC90 [21] was over 10 mg/L. For the same substance, the Neutralization by PGT-130, IC95 [21] was over 10 mg/L, the neutralization IC50 (pseudovirus) [21] was over 10 mg/L and the IC50 (µg/mL), pseudovirus neutralization [22] was 27.9 µg/mL. It also gave a Neutralization by PGT-130, IC50 [23] of 0.474 mg/L, a Neutralization by PGT-130, IC80 [23] of over 10 mg/L and a Neutralization by PGT-130, IC90 [23] of over 10 mg/L. It also gave a Neutralization by PGT-130, IC95 [23] of over 10 mg/L, a neutralization IC50 (pseudovirus) [23] of 0.474 mg/L and an IC50 (µg/mL), pseudovirus neutralization [24] of 0.0198 µg/mL. It also gave a Neutralization by PGT-130, IC50 [25] of 0.014 mg/L, a Neutralization by PGT-130, IC80 [25] of 0.508 mg/L and a Neutralization by PGT-130, IC90 [25] of 3.68 mg/L. The Neutralization by PGT-130, IC95 [25] was over 10 mg/L, the neutralization IC50 (pseudovirus) [25] was 0.014 mg/L and the IC50 (µg/mL), pseudovirus neutralization [26] was 4.14 µg/mL. The Neutralization by PGT-130, IC50 [27] was 0.0182 mg/L, the Neutralization by PGT-130, IC80 [27] was 0.272 mg/L and the Neutralization by PGT-130, IC90 [27] was 1.31 mg/L. The Neutralization by PGT-130, IC95 [27] was 5.48 mg/L, the neutralization IC50 (pseudovirus) [27] was 0.0182 mg/L and the Neutralization by PGT-130, IC50 [28] was 0.0378 mg/L. For the same substance, the Neutralization by PGT-130, IC80 [28] was 0.289 mg/L, the Neutralization by PGT-130, IC90 [28] was 2.31 mg/L and the Neutralization by PGT-130, IC95 [28] was over 10 mg/L. It also gave a neutralization IC50 (pseudovirus) [28] of 0.0378 mg/L and an EC50 (WT JR-FL gp120 (HIV-1)) of 0.2 mg/L.
